Reference: patent publication US20160136234A1

How the values were obtained:
Experiment in all cases: cell-based or functional assay
MSK1 (h) (human) = MSK1 (h) (human) (UniProt O75582)
PRAK (h) (human) = PRAK (h) (human) (UniProt Q8IW41)
CaMKIδ (h) (human) = CaMKIδ (h) (human) (UniProt Q8IU85)
Lyn (h) (human) = Lyn (h) (human) (UniProt P07948)
PAK3 (h) (human) = PAK3 (h) (human) (UniProt O75914)
Rsk2 (h) (human) = Rsk2 (h) (human) (UniProt P51812)
PKG1α (h) (human) = PKG1α (h) (human) (UniProt Q13976)
Abl(Y253F) (h) (human) = Abl(Y253F) (h) (human) (UniProt P00519)
Abl(Y253F) (h) (human), sequence (P00519 27-1130 Y253F limits assumed): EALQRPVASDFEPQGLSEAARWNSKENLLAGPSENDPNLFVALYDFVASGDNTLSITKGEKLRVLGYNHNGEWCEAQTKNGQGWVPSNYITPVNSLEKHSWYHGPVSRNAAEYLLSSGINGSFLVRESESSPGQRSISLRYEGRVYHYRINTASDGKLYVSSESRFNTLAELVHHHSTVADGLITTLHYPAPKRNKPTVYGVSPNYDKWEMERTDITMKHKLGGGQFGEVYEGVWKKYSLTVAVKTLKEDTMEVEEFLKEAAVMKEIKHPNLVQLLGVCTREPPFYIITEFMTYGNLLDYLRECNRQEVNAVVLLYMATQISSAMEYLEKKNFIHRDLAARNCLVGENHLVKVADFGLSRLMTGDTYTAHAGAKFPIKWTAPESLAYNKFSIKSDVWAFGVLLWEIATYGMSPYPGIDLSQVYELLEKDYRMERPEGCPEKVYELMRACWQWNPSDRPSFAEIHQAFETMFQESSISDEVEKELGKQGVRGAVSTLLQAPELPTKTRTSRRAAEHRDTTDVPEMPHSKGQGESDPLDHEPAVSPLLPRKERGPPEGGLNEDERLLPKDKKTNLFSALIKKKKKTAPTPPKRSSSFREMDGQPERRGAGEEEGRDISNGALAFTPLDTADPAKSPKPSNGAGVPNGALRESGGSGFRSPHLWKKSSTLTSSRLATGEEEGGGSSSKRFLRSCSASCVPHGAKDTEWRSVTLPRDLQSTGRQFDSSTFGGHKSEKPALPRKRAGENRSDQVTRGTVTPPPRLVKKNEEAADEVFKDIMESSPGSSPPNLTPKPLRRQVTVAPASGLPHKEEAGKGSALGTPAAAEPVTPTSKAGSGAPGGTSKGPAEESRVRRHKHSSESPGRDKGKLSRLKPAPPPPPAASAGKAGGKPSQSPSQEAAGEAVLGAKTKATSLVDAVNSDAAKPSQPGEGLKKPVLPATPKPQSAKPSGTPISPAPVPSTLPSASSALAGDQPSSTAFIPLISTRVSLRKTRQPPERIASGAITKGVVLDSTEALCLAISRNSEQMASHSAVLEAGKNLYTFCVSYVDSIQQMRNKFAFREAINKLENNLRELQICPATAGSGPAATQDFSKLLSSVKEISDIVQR

Met (h) (human) = Met (h) (human) (UniProt P08581)
Met (h) (human), sequence (P08581 956-1390 limits assumed): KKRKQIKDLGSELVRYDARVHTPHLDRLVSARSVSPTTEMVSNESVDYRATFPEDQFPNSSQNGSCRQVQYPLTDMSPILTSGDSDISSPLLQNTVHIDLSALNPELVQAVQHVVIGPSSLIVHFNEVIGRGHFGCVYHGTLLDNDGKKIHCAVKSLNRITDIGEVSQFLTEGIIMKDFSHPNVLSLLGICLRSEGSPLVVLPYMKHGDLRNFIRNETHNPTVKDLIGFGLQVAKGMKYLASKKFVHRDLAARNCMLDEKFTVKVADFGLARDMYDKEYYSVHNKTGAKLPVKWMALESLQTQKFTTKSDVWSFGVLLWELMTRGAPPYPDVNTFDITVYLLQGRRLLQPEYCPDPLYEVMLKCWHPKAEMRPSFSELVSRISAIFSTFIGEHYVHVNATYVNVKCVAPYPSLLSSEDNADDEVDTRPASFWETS

CaMKIV (h) (human) = CaMKIV (h) (human) (UniProt Q16566)
SGK3 (h) (human) = molecular target: T1, SGK3 (h) (human) (UniProt Q96BR1)
T1 sequence (looked up): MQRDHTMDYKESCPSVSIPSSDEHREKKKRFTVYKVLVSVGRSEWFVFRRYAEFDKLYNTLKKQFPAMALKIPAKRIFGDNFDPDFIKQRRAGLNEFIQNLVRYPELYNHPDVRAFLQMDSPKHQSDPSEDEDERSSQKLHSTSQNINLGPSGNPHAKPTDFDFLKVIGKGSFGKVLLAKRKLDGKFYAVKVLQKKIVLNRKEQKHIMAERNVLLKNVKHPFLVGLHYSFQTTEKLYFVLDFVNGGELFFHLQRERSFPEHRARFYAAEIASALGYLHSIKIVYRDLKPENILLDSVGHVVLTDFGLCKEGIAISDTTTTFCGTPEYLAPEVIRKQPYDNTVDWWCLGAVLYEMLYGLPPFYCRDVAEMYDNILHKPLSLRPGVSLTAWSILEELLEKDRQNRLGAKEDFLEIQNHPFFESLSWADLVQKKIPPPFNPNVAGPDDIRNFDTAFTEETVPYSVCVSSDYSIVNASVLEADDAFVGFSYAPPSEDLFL

SAPK3 (h) (human) = molecular target: T2, SAPK3 (h) (human) (UniProt P53778)
T2 sequence (looked up): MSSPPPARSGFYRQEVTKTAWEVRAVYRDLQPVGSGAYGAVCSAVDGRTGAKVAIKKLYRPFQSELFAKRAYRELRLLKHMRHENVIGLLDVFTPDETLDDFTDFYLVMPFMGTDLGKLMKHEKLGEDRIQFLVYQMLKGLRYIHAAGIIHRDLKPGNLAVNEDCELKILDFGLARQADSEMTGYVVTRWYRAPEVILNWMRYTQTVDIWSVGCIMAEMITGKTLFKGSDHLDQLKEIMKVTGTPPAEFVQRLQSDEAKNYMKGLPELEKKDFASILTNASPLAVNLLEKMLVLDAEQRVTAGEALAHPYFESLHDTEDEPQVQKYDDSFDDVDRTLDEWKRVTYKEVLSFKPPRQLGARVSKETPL

NEK7 (h) (human) = NEK7 (h) (human) (UniProt Q8TDX7)
EphA5 (h) (human) = molecular target: T3, EphA5 (h) (human) (UniProt P54756)
T3 sequence (looked up): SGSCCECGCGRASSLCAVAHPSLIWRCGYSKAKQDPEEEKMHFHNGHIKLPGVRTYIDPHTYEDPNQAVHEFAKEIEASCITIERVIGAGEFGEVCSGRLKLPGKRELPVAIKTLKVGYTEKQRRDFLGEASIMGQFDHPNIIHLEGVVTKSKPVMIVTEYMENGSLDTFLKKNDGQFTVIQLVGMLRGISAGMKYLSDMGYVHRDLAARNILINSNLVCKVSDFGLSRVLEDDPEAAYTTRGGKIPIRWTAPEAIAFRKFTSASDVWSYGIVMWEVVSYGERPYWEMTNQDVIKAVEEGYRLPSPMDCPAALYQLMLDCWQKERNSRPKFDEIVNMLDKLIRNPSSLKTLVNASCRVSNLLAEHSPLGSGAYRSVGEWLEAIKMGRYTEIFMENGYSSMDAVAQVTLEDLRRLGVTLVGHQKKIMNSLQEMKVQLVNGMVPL

MST1 (h) (human) = molecular target: T4, MST1 (h) (human) (UniProt Q13043)
T4 sequence (looked up): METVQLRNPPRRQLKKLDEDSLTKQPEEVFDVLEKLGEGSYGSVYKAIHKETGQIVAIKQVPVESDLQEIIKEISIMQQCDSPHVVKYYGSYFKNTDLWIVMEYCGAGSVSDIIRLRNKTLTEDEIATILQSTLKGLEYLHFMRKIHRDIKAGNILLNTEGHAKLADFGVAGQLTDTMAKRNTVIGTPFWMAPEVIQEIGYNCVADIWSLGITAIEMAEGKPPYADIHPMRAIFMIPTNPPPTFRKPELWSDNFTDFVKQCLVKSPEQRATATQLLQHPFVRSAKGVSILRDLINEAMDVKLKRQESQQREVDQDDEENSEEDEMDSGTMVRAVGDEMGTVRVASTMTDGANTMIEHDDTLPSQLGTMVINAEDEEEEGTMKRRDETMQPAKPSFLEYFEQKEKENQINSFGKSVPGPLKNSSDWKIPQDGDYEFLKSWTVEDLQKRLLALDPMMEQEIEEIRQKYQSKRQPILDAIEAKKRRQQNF

MST2 (h) (human) = molecular target: T5, MST2 (h) (human) (UniProt Q13188)
T5 sequence (looked up): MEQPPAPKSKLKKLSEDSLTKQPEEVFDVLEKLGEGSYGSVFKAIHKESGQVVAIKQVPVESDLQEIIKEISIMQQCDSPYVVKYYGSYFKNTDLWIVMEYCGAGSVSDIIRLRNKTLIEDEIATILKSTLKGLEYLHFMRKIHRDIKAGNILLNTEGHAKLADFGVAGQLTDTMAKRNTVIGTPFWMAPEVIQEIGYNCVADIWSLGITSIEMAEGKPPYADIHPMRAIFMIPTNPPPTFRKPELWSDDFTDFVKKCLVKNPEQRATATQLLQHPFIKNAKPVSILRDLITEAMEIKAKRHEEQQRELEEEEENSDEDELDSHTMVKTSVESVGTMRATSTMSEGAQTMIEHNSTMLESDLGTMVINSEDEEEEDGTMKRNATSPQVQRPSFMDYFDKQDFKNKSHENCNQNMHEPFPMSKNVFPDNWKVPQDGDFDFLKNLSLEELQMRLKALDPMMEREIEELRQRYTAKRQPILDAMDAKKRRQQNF

[1] = molecular target: Mitogen-Activated Protein Kinase-Activated Protein Kinase 3 (human) (UniProt Q16644)

Rsk2 (h) (human), sequence (P51812 whole entry): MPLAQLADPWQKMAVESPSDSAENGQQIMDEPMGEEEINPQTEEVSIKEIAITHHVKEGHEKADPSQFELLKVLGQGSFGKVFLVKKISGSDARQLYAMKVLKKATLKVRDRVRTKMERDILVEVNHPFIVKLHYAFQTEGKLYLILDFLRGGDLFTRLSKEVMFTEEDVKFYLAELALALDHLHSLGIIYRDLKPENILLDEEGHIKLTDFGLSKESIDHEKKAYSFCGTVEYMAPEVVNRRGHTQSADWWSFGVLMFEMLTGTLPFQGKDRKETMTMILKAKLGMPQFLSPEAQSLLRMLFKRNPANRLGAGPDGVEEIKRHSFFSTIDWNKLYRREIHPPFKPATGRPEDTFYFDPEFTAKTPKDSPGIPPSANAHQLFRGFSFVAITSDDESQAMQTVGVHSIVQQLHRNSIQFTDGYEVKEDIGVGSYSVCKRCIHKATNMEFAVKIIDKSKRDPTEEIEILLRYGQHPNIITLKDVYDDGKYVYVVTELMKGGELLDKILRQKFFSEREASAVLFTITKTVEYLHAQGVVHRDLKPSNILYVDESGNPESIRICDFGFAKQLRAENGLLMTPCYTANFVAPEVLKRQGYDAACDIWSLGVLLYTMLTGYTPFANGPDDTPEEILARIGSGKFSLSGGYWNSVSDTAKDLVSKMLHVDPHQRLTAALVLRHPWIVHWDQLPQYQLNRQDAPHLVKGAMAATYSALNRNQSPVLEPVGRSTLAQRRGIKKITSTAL
PRAK (h) (human), sequence (Q8IW41 whole entry): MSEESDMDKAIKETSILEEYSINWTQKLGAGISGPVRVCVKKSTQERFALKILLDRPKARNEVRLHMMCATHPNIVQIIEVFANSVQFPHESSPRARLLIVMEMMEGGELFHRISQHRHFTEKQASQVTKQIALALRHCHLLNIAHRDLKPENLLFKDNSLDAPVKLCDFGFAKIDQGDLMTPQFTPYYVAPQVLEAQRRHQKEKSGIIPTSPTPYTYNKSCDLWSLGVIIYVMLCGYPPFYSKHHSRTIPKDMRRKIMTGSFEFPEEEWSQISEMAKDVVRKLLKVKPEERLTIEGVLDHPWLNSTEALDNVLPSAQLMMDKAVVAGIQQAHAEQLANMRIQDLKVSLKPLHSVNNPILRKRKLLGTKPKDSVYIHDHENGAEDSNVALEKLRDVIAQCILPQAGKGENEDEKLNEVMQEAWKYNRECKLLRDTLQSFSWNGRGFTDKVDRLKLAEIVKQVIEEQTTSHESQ

% activity at 100 µM (MSK1 (h) (human)): 32% | % activity at 100 µM (PRAK (h) (human)): 128% | % activity at 100 µM (CaMKIδ (h) (human)): 10% | % activity at 100 µM (Lyn (h) (human)): 69% | % activity at 100 µM (PAK3 (h) (human)): 140% | % activity at 100 µM (Rsk2 (h) (human)): 51% | % activity at 100 µM (PKG1α (h) (human)): 64% | % activity at 100 µM (Abl(Y253F) (h) (human)): 86% | % activity at 100 µM (Met (h) (human)): 65% | % activity at 100 µM (CaMKIV (h) (human)): 17% | % activity at 100 µM (SGK3 (h) (human)): 10% | % activity at 100 µM (SAPK3 (h) (human)): 84% | % activity at 100 µM (NEK7 (h) (human)): 84% | % activity at 100 µM (EphA5 (h) (human)): 18% | % activity at 100 µM (MST1 (h) (human)): 14% | % activity at 100 µM (MST2 (h) (human)): 19% | % activity at 100 µM [1]: 3%
Substance: MMI-0300 (peptide)
